From the RNAGym collection of RNA variant scans (doi:10.7554/elife.80360) come the findings set out here.

The labels stand for the following.
B1: HDV Ribozyme (parent)
chain: GGCCGGCAUGGUCCCAGCCUCCUCGCUGGCGCCGGCUGGGCAACAUUCCGAGGGGACCGUCCCCUCGGUAAUGGCGAAUGGGACCCA

The variants in the data set derive from B1. Nature of the data set: self-cleavage, relative activity (ratio to wild type); higher = more cleavage; co-transcriptional.
Regarding C41U C44G, the self-cleavage amounted to 0.492.

With C21A G74A, the self-cleavage was 0.0536.

In the case of C44U A45G, the self-cleavage came out at 0.739.

Turning to G67A U72A, the self-cleavage worked out at 0.532.

Regarding G52C C84A, the self-cleavage is 0.791.

Turning to U27C C84G, the self-cleavage is 0.554.

As for C33A G38C, the self-cleavage worked out at 0.151.

Regarding G73U U79C, the self-cleavage amounted to 0.169.

Regarding U12G A77C, the self-cleavage was determined as 0.

Consider G1A C4U, for which the self-cleavage is 0.252.

For the variant C7U G53U, the self-cleavage was 1.09.

As to G17C C18A, the self-cleavage came to 0.

Turning to C33A A70G, the self-cleavage was found to be 0.198.

Turning to U9C U23A, the self-cleavage turned out to be 1.13.

Turning to G28C G59C, the self-cleavage was determined as 0.212.

For the variant C32A G59A, the self-cleavage was 0.373.

With G11C C32U, the self-cleavage came to 0.192.

In the case of G2C C24G, the self-cleavage was found to be 0.0361.

Take C19U A45G: the self-cleavage was found to be 0.111.

With U72C C86G, the self-cleavage amounted to 0.277.

Consider C49U C58U, for which the self-cleavage came out at 0.991.

For C19U C85G, the self-cleavage was determined as 0.102.

For C64G G82C, the self-cleavage stood at 0.0811.

Take G6C U72A: the self-cleavage was determined as 0.0755.

As for U65C A71C, the self-cleavage is 0.703.

On to G25A G35A, for which the self-cleavage was 0.271.

Take C4A A87U: the self-cleavage stood at 0.39.

Take G50C A71G: the self-cleavage turned out to be 1.01.

As to G29C A51U, the self-cleavage worked out at 0.0308.

As to C30U C85G, the self-cleavage was determined as 0.0978.

For G76C C85A, the self-cleavage was determined as 0.873.

Consider C13U G59U, for which the self-cleavage is 0.831.

Take C24A G35A: the self-cleavage came to 0.212.

For G35C C49A, the self-cleavage stood at 0.119.

Take C4G C41G: the self-cleavage is 0.0437.

As to G2C U12C, the self-cleavage was 0.175.

For the variant C22A G25C, the self-cleavage turned out to be 0.

As for G38U A77U, the self-cleavage stood at 0.0845.

On to C26A U65C, for which the self-cleavage amounted to 1.21.

As for U47A G53C, the self-cleavage is 1.19.

As to G54A G76C, the self-cleavage came out at 1.04.

Turning to U60G A78U, the self-cleavage stood at 0.178.

With U20C G55A, the self-cleavage was determined as 0.0405.

For G1U G28U, the self-cleavage came to 0.295.

Take U20A C62U: the self-cleavage amounted to 0.0475.

As for G39C U72A, the self-cleavage stood at 0.0426.

In the case of C24U U60A, the self-cleavage stood at 0.627.

With C3U U69C, the self-cleavage was 0.616.

On to G34U U69A, for which the self-cleavage is 0.102.

For G1U C75G, the self-cleavage turned out to be 0.162.

Turning to C4A G67C, the self-cleavage was found to be 0.348.

Regarding U47A A83G, the self-cleavage was 0.734.

As for G11A U79C, the self-cleavage amounted to 0.161.

Take U12C C49A: the self-cleavage was 0.322.

C18G G25U: the self-cleavage is 0.0386.

As for C26U G82C, the self-cleavage turned out to be 0.431.

Regarding A43G G50U, the self-cleavage was 0.658.

Turning to C64A U65C, the self-cleavage was 0.831.

With C3U C13U, the self-cleavage is 0.509.

As to U20A A45G, the self-cleavage turned out to be 0.

For the variant U47A C62U, the self-cleavage was determined as 1.03.

Turning to G67U G74C, the self-cleavage was 0.151.

In the case of C18G G54A, the self-cleavage was 0.125.

Regarding A8U C33G, the self-cleavage came to 0.0536.

Take C18G G67A: the self-cleavage is 0.101.

Consider C7G U46C, for which the self-cleavage was 0.

Turning to G67U G82A, the self-cleavage is 0.28.

For the variant C14G G29U, the self-cleavage worked out at 0.0396.

Regarding G11U G25U, the self-cleavage was 0.0623.

For the variant U60G C86G, the self-cleavage worked out at 1.14.

As to C41G C85G, the self-cleavage came out at 0.429.

With A56G G67U, the self-cleavage was found to be 0.997.

C85U: the self-cleavage came out at 0.978.

Consider C26A C61G, for which the self-cleavage came to 1.04.

Consider G1C A56G, for which the self-cleavage is 0.356.

For the variant C26U C63G, the self-cleavage worked out at 0.883.

For G38A G53A, the self-cleavage stood at 0.113.

For the variant A16G A71C, the self-cleavage was found to be 0.575.

Turning to G55A A70C, the self-cleavage worked out at 1.06.

U20A U27A: the self-cleavage amounted to 0.0723.

Consider C4U C62A, for which the self-cleavage worked out at 1.06.

For the variant A43G C58A, the self-cleavage came to 0.629.

As for U27A U65G, the self-cleavage was determined as 1.12.

Turning to G28A C86G, the self-cleavage amounted to 0.0678.

Regarding C22G C61A, the self-cleavage stood at 0.145.

For the variant G28A G73A, the self-cleavage was 0.112.

As for C13G G25A, the self-cleavage was 0.

As to A42U C84A, the self-cleavage came out at 0.655.

On to G6U G50U, for which the self-cleavage was 0.475.

Turning to G2A C33A, the self-cleavage was determined as 0.0548.

U23A G35A: the self-cleavage is 0.864.

C49A U69G: the self-cleavage stood at 1.33.

For the variant A8G G11U, the self-cleavage turned out to be 0.0739.

U12G G52C: the self-cleavage was 0.937.

With C19U G81U, the self-cleavage is 0.131.

For the variant C32U A51U, the self-cleavage turned out to be 0.884.

With C3G G11A, the self-cleavage came out at 0.144.

On to C26U G68U, for which the self-cleavage is 1.13.

Regarding G17A G55U, the self-cleavage turned out to be 0.762.

As for G17A A51C, the self-cleavage was found to be 0.755.

C44U U65G: the self-cleavage turned out to be 0.812.

Take G74C G82C: the self-cleavage stood at 0.0475.

For the variant G25A C66A, the self-cleavage worked out at 0.287.

Turning to C44G G54A, the self-cleavage worked out at 0.831.

For the variant C21G C26U, the self-cleavage was 0.0615.

On to G52U C64G, for which the self-cleavage stood at 0.902.

Take C24G U69G: the self-cleavage came to 0.332.

For the variant G38A C85A, the self-cleavage was 0.104.

As for A8G U65A, the self-cleavage turned out to be 0.89.

For C26G U72A, the self-cleavage was 0.615.

As for A42U A70U, the self-cleavage is 0.312.

For the variant G25U G73A, the self-cleavage was 0.0923.

Take C14G U69A: the self-cleavage is 0.767.

As for C15G G68C, the self-cleavage is 0.511.

Regarding G31U A78C, the self-cleavage turned out to be 0.0297.

In the case of G17U C84G, the self-cleavage came to 0.439.

G25C U47C: the self-cleavage amounted to 0.

Consider C30A C62A, for which the self-cleavage was found to be 0.578.

Regarding C22A A77G, the self-cleavage was 0.38.

For the variant A56G A77U, the self-cleavage worked out at 0.739.

In the case of G10A G59U, the self-cleavage was 0.95.

Regarding G76U A83C, the self-cleavage is 0.755.

Consider U27G C84A, for which the self-cleavage worked out at 0.831.

Consider C21U U23A, for which the self-cleavage was 0.173.

Take G6A C86U: the self-cleavage turned out to be 0.759.

In the case of C64A U69A, the self-cleavage turned out to be 1.06.

In the case of A70U A87C, the self-cleavage stood at 0.98.

G29A G55C: the self-cleavage is 0.0563.

Turning to C7G A71G, the self-cleavage was found to be 0.151.

On to G17U C26G, for which the self-cleavage was 0.608.

Consider A71C U79C, for which the self-cleavage was 0.269.

On to C19G C49G, for which the self-cleavage stood at 0.0426.

On to C30G C32A, for which the self-cleavage is 0.115.

For the variant U47A G54C, the self-cleavage came to 1.01.

For C4U A71G, the self-cleavage amounted to 0.643.

As to G28C C63A, the self-cleavage is 0.17.

A71G G82A: the self-cleavage turned out to be 0.538.

Regarding C26G G28A, the self-cleavage was 0.0449.

Regarding C13G A78U, the self-cleavage is 0.185.

As for C13G A56C, the self-cleavage stood at 0.0489.

Regarding U9G G73C, the self-cleavage was determined as 0.767.

As to C57U A77U, the self-cleavage stood at 0.648.

On to C32A A42G, for which the self-cleavage came out at 0.0519.

In the case of G34U A77U, the self-cleavage worked out at 0.163.

For the variant U12G A70U, the self-cleavage was found to be 1.02.

Take C7A G80U: the self-cleavage was 0.152.

Regarding G10U G38U, the self-cleavage is 0.0625.

On to U23G G25U, for which the self-cleavage was determined as 0.0594.

For G50U G80U, the self-cleavage was 0.2.

C4A C19U: the self-cleavage came out at 0.0203.

Take C13U C86G: the self-cleavage worked out at 0.692.

With G55A U79G, the self-cleavage is 0.85.

In the case of C44G G80A, the self-cleavage was 0.223.

Take C3G G55C: the self-cleavage was 0.682.

As to C32G A45U, the self-cleavage turned out to be 0.142.

For C15G G76U, the self-cleavage turned out to be 0.831.

On to C7A G53U, for which the self-cleavage came out at 0.544.

As to C44U G82A, the self-cleavage came out at 0.363.

For C13A C18A, the self-cleavage was 0.169.

On to C41G C44U, for which the self-cleavage is 0.403.

Consider G10C A70C, for which the self-cleavage is 0.923.

On to A16C C84U, for which the self-cleavage came out at 0.727.

Consider U37C G39C, for which the self-cleavage came to 0.177.

A8U U69A: the self-cleavage amounted to 0.962.

For the variant C18G A78G, the self-cleavage was determined as 0.

As for C33U U65A, the self-cleavage was 0.739.

For the variant C44A C75A, the self-cleavage was determined as 0.359.
